From PMC9067936, “SHIP164 is a chorein motif lipid transfer protein that controls endosome–Golgi membrane traffic” (The Journal of Cell Biology, 2022)

Molecular target: the molecule itself
Test: negative-stain electron microscopy; 2D class averages of negatively stained purified protein (50 nM, 2% uranyl acetate, carbon-coated copper grids); MBP densities used to locate the N-termini

Protein | stoichiometry N
3XFLAG-SHIP164_(Δ901–1099) (natural protein, SHIP164 (UHRF1BP1L), human, codon-optimised ORF from Genscript; construct lacking the predicted unstructured segment, residues 901-1099; Seen as a tail-to-tail dimer in vitro; also called 3×FLAG-SHIP164_(Δ901–1099); UHRF1BP1L; source: Expi293F, transfected, purified (anti-FLAG M2 resin, gel filtration on Superdex 200); not shown: 3xFLAG, N-terminal, kept) not shown | 2
MBP-SHIP164 fusion (MBP fused to the N-terminus of SHIP164_(Δ901–1099)) (natural protein, SHIP164 (UHRF1BP1L), human, codon-optimised ORF; lacks residues 901-1099; Probably made in Expi293F and purified as m1, possibly with a 3xFLAG tag as well; not shown: MBP (E. coli MBP residues 27–392 and two additional alanines), N-terminal, kept) not shown | 2
